Test results from a protein production outcome set (Wang et al. 2014).

Assay: label from the status in PepcDB records
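Also: failed if final PepcDB status was selected cloned or expressed and not failed if soluble or beyond.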

Sequence | protein production
MDVFDGLPDPIIVDILNKVGDVKTLLRCSSLSKRFNSLVPQSESLTLRLDHSVSDSPVVTSIFRSLFNGLVSLLSKPAKPITITTLSPSLPFKILSRFDRIRNLDVELPGGDVKLEKGAAVKWKAEFGKTLKSCVIVAFRSAGTVSSPVAVEGESDAEFVTGLKTRVVWTISALMAASSRHYLMREVVKEHEEIESLVMRDKEREGTVVMNEEGLKELRNTEARVEDEERVVKNKRSVVPSVRMSMRHAPSLKLKSGICLESATLVIVRPSGADFEVGDDAELATEAFVGDCMYGEAVVALLKCKKNALEMNSF | failed
MDVGSFGFTIAGLVVGFIVGMTGVGGGSLMTPILLWFGIHPATAVGTDLLYAAITKASGVWVHARNKNIDWKITGLLSLGSVPAAALTLWFLSTLHTDTSALNAIIKQGLAVVLILTALAILFKSRLQAFASRHAGDHYHLSDRSLNILTVLTGVVLGIMVTLTSIGAGALGTVALFLLYPFLVTRRLVGTEIAHAVPLTLVAGLGHAGMGNMDWSLLGYLLLGSLPGIYLGSHLTGRISDRVLRPCLATMLLLIGYKLAF | failed
MDVHQLTEQALALLLQHTGADGGAILIEVDGEIRVAASQGIGSAHTLANNDRVRSALRTERRHRVQLPEDLVVDGMLAQFRPKEVIIDPVRHKEVVLGAVVLASGQGFSAEDRNRLDVFERGLALALHNALLYDRLQTLAALDPLTGALEHHHHHH | not failed
MDVLPLLLLVAGSAAVAGAARRTPVPAPLLLVAAGLIASYIPGVPEYTLDPEVVLPLVLPPLLYTAASDSSYLDLRAQLRPVALLSIGYVLFATLVVGWAAYLLVPGLPLPAALVLGAVVAPPDAVAATAVARRVGLPSRITTILQGESLVNDATAITAYKVALAAAVGEGATWAHGVGEFLLAAVGGVAVGLLLMVPLHWLRTHLKEALLQNTLSLLIPFVAYGLAEWAHASGVLAVVVVALYLGHRNYEVDFATRLQEEAVWKMVAFVLESAVFALIGLQLQVVLKGLGEYRGVDAAWYAVAVFLVVVLARFVWVYPATFLPRLLSARIREREENPTWKAPFIIGWAGMRGVVSLAIAFSIPLTVHGQGKGPFPGRNLILFLTFTTVIGTLVVQGLTLPPLIRLLRLPGRDAQAETLAEANAQAQASRVAELRLNDLLDDERNALPPPLADRLRDVLERRRNAVWERLGAVNPVTGESVDDTYRRLSREMIAAERSVFVRLRNGRYIDDEMLRTLLRRLDLEEAAAFREAT | failed
MDVPSSWDALRKQARKIEAQLDEQMHSYRRLVSTKALSKSDGNESDLEAGIDLLLRQLQQVNAQMQAWVSSGGSEMVSHTLTRHQEILQDLTQEFYRHRSSLRAKQEHASLLEDFREFDRTRLDLEDGYGSEQALIKEHMGINRNTAQMDGVISQAQATLGTLVFQRSTFGGINSKLSNVASRLPTVNTILAAIKRKKSMDTIILSLVAAVCTFLIFIYWITK | failed
MDVQFAILAFTSLFSILNPFGVIPTYLVLTSQYSKVEKIKIIRKSMLAAFIILMMFALLGNQIIGFFGISIPAIKITGGVLLFLIALDMIQGNTSKVEKSPKLESHLKSHAEEIEEMDEIAIVPLTVPLLTGPGSISAVIAMMAQTSDFDGKISVIIAISLCIIISYFVLKFSKDLEKMLGKIGFKVLTKMMGLVLTAISIQMALDGILMVFG | failed
MDWAQLLPSMKTRTGVATSPPPARSFYCHPSARKNPLHLHLITDAVARNILETLFRTWMVPAVVVSFYDAEELKPLVSWIPNNHYSGLYGLMKLVLPSILPPSLARVIVLDTDVTFSSDIVELWALFDHFSDKQVVGLVENQSDWYLGNLWKNHRPWPALGRGFNTGVILLWLDRLQQTGWEQMWKVTAKRELLTLMATSLADQDIFNAVIKEHPHLVHPLPCVWNVQLSDHTRAERCYLEAADLKVIHWNSPKKLRVKNKHAEFFRNLHLTFLGYDGKLLRRELFGCPNQFPPGAEQLQQALTQLDEEEPCFEFRQQQLTVHRVHITFLPHQPPPPQPHDVTLVAQLSMDRLQMLEALCRHWPGPMSLALYLTDEEAQQFLHFVETSPVLSMRKDVAYHVVYRDGPLYPVNQLRNVALAQALTPYVFLSDIDFLPAYSLYDYLRASIEQLELDSRRKTALVVPAFETLHYRFSFPNSKAELLTLLDAGSLHTFRYHEWPQGHSSTDYSRWREAQAPYSVQWSADYEPYVVVPRDCPRYDPRFVGFGWNKVAHIIELDAQEYEFLVLPEAFSIHLPHAPSLDISRFRSSPTYRNCLQALKEEFHQDLSRRYGSAALKYLTALQQARSRA | failed
MDWIESVKSYIKVVEEGSFNAAAYQLNTSGSAISKRINWLEERVGVQLLTRTTRSVHQTEAGLLFYQRARLQLDQWQHLVDETRAINQTPAGLLKIGATLAVGSKFIIKYLDEFLATYPKIKVQLITTLPGQVPEHNVDVFISRELEQLNTFSYKATHLFEHHSGFFASKDYLDKYGTPNNINELKAHNMLIWGERPIKEIKLTNNKRVTLRGNFATTNPEALFHAAKRGMGILLTSQQMVIDDLQSGALVPILPEITTDHTRVNAYYPTLDYEHTRTQLFIKYLKTKLS | failed
MDWITLLRSLQSDFIKRLSSGCLLHCEIEGQYSELTVISGERLKTLRDFCWLMAEKYKRVSPVRDVFISYLKGKLGEEVVKERLADLITEVDYEKRLGGDGKIDFTLTANPAIGIEVKSRHGNIDRVRWSVSAEEVEKNAVVVCIFIKEDVNEAQSSYHLLLAGFLPTQMIKLKTGNISFGIEQLLYGGGLWGYLEQLQASANYHQFQQSPPIYQYKPQPELLSKINQTQSIKPALFTGIKNILPYRQQEAINIDYIKIGDECFAQGEYTASIKNYSQALQASSDNCELYYKRGLSYYQLGDYEAAIADYSQAININLHDAKSYHKRGLALSQLAAYEAAIDDYNQAIRINPHAASIYKNRAEARSHLGDNQGAIEDYTQAIKINPQYADTYKNRGISRYLLATQPGFTQAIKINPNDANAYKNRGNARADIGDYLGAIEDYNQAIQINPKAADAYYNRGNARYDLGDEEGAIADYTQAIQINPSYADAYYNRGNVRAGIKDKQGAIADFQKAADIYRKEGKLAELKDTTERVVELEIEESIDILNF | failed
MDWKVFLLRVAVALVLGALIGAERQLRQRLTGLRTNALVSTGACLFVLMTQGVPGLAGDASRIAAYVVSGIGFLGGGVIMRDGLNVRGLNTAATLWCTAAIGVLCSMGLLLEATLGSLVVLCANILLRDIAQRLNRQDVLPASEAEQRYEVQIVCRAEDEIQVRSLMLHSLGSSDLRLQSLHSEDLDNPAKLEVRAELLGTPEAPAQLERLVSRVSLEKGVSSVRWQVFELAAD | failed
MDWTTLFFSFRGRINRAKYWLVGLIYVAAWMVFTVLAITWLGGVDPDQLFRFAGGAILIWLIAIALGLAGTWSGLATGVKRLHDRDKSGWWILLFWFGPSLLGGSNQTMEDSPVSLVLALIGLGIAIWGFVELGCLRGTPGPNQYGPDPLEPQGTLT | failed
MDYDQQPIMYDEVELLIQAVDQQPHPLLRLRDKAIIQLGLQGGFRRSELANLKVHYLSFMRDKLKVRLPFSKSNQQGLREWKSLPDSEPFAAYHAVKSWLNESQITDGHLFRSISRDGKTLRPYHVNDNSKPKSTFSRNSGFLNGDDIYRIIKQYCLKAGLPAQYYGAHSLRSGCVTQLHENNKDILYIMARTGHTDPRSLRHYLKPKEDLEHHHHHH | failed
MDYFRLAEKFLREMHAKYMKRVSRPGNTPRPWFDFSEERLLSRLFEEMDELREAVEKEDWENLRDELLDVANFCMYLWGKLSVKNIYDKGEEQ | not failed
MDYKKTNAPSNTVTRDMMDLCADTGNIYETVAIIGKRANQISVEMKNDLSKKLQEFASYNDNLEEVFENREQIEISRYYEKLPKPTLIAAQEYEEGKVYFRNPAKEKEKLQ | not failed
MDYKLIITLFTFCVAAFSGMKAAEAASFSVVADGLNNARGLSFGLDGALYVTEAGTGGNGACIPSVTGQGGSLCYGTSSTVLKIENGVTSPVLTGLPSIALADGTGAGGARDIQFDTTGKPYILMGYGANPTFRNNLGNIDLGKIIAPDFQTNSWTSIADLANYELVNNPDGGDINSNPLGFFIDGNNLIAVDAGANNLLSVQTNGTNLQTLSVFPQEILTNPVFPPSGTPSTEPGQVPTPTAPPPPQLPIQVVPSSVVRGPDGAYYVSQFTGFPFPEGGAKIYRVGTDGETTIYADGFTQLTDLEFDSAGNLYALQYANQSAWKGNFDGSLIKIAADGTRTTILSGNGLESPNALAIAPNGEIYITNRSDRPGLGQIIRVENSQAVPEPNSAFSVFLLGAFGVAWLRKSTSRVCLNQKP | failed
